The nanobody polyreactivity screen of Harvey et al. (2022)

assay: yeast display, Sf9 membrane polyspecificity reagent, FACS + sequencing; frameworks hold sequencing errors
How it was run: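 After 36–48 hours of galactose induction, yeast (Saccharomyces cerevisiae BJ5465) displaying a synthetic nanobody library were stained at 4 °C for 1 hour with 10% biotinylated, detergent-solubilized Sf9 membrane reagent. Streptavidin microbeads enriched the stained cells before FACS sorting into low and high (top ~1%) gates on anti-HA and streptavidin fluorescence. Each clone's polyreactivity label reflects its gate of origin.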

Sequence | polyreactivity (PSR sort gate)
QVQLVESGGGLVQAGGSLRLSCAASGRTFLYNTRGWYRQAPGKERELVATITGSGASTYYADSVKGRFTISRDNAKNTVYLQMNSLKPEDTAVYYCATDNVYAYDYWGQGTQLTVSS | high polyreactivity
QVQLVESGGGLVQAGGSLRLSCAASGSTFRWYAMGWYRQAPGKERELVASISGSGGSTYYADSVKGRFTISRDNAKNTVYLQMNSLKPEDTAVYYCNKRYFTYLGEHTVGYWGQGTQVTVSS | high polyreactivity
QVQLVESGGGLVQAGGSLRLSCAASGRIYYRNAMGWYRQAPGKERELVAAISWRGGTTYYADSVKGRFTISRDNAKNSVYLQMNSLKPEYTAVYYCAADRRKAQAKPVHYSWGPQRYGYGYWGQGTQVTVSS | high polyreactivity
QVQLVESGGRLDQAGGSLRLSCAASGRIFSRNTMGWYRQAPGKERELVATITSAGSTSFADSVKGRFTISRDNAKNTVYLQMNSLKPENTAVYYCAKRGAYATGRRYDPYGYWGQGTQVTVSS | high polyreactivity
QVQLVESGGGLVQAGGSLRLSCAASGISFNSYTMGGYRQAPGKERELVAAITASGGTTRYADSVKGRFTISRDNAKNTVYLQMNSLKPEYTAVYYCNALPFRYGKRRGYWGQGTQVTVSS | low polyreactivity
QVQLVESGGCVVQAGGSLRLICAASGRTFGRNVMGWYRQAPGKEMELVAAISRSGGSTYYADSVKGRFTISRDNAKNTVYLQMNSLKPEDTAVYYCAAYSVGDYYWGQGTQVTVSS | high polyreactivity
QVQLVESGGGLVQAGGSLRLSCAASGSTFWYYVMGWYRQAPGKERELVAAISTRGDSTYYADSVKGRFTISRDNAKNTVYLQMNSLKPEETAVYYCAKYRQSSGRVRFDYWGQGTQVTVSS | low polyreactivity
QVQLVESGGGLVQAGGSLRLSCAASGFTFAFYAMGRYRQAPGKERELVAAISRRGGSTTYADSVKGRFTISRDNAKNTVYLQMNSLKPEDTAVYYCNAVSTRNPGPDYYYWGQGTQVTVSS | high polyreactivity
QVQLVESGGGLVQAGGSLRLSCAASGSIFLGYTMGWYRQAPGKERELVAAINSSGGSTYYADSVKGRFTISRDNAKNTVYLQMNSLKAEDTAVYYCADANSILLFDSWGQGTQVTVSS | low polyreactivity
QVQLVESGGGLVQAGGSLRLSCAASGRIFRGYAMGSYRQETGKETELVAAISRSGGSTYYADSVKGRFTISRDNAKNTVYLQMNILKPEDTAVYYCNTKYVRYYRRYDSWGQGTQVTVSS | high polyreactivity
QVQLVESGGGLVQAGGSLRLSCAASGFTFAGYAMGWYRLAPGKVRELVAAISWRGGSTYYADSVKGRFTISRDNAKNTVYLQMNSLKPEDTAVYYCAAASRKRTSREPLDYWGQGTQVTVSS | high polyreactivity
QVQLVESGGGLVQAGGSLRLSCAASGRTFWNYAMGWYRQAPGKERELVAVIRFSDGSTYYADSVKGRFTISRDNAKNTVYLQMNSLKPEDTAVYYCADIGPRRWGSGFDYWGQGTQVTVSS | low polyreactivity
QFQLVESGGGLVQAGGSLRLSCAASGSTFDPNAMGGYRQAPGKERELVASITSRGGSTYYADSVKGRFTISRDNAKNTVYLQMNSLKPEDTAVYYCAAVGGATYSWNGYSWYPWHNYWGQGTQVTVSS | low polyreactivity
QVQLVESGGGLVQAGGSLRLSCASSGRTYNVMGWYRQATGKERELVAAITWRGGSTHYADSVKGRFTISRDNAKNTVYLQMNSLKAEDTAVYYCSADLLYKSTRVDYWGQGTQVTVSS | low polyreactivity
QVQLLESGGGLVQAGGSLRLSCAASGYIFGWYTMGWYRQAPGKERELVAAISYSGGDTYYADSVKGRFTNTRDNAKNTVYLQMNSLKPEDTAVYYCAAVDPASPLGEYWGQGTQVTVSS | low polyreactivity
QVQLVESGGGLVQAGGSLRLSCAASGSIFYVYAMGWYRQAPGKERELVASISWGDSSTYYADSVKGRFTISRDNAKNTVYLQMNSLKPDDTAVYYCAADEYRQYALYDYWGQGTQVTVSS | low polyreactivity

Sequence | polyreactivity (PSR sort gate)
QVQLVESGGGLVQAGGSLRLSCAASGRTFGPYSMGWYRQAPGKERELVAAISSSGSTTYYADSVKGRFTISRDNAKNTVYLQMNSLKPEDTAVYYCAKPSSRDSPYDYWGQGSQVTVSS | low polyreactivity
QVQLVESGGGLVQAGGSLRLSCAASGFIFRTYAMGWYRQAPGKERELDATITGDGSTNYADSVKGRFTISRDNAKKTVYLQMNSLKPEDTAVYYGSRDVRLSGDYWGQGTQVTVSS | low polyreactivity
QVQLVESGGGLVQAGGSLRLSCAASGNTLHVYAMGWYRQAPGKERELVARITGGGRTYYADSVKGRFTISRDNAKNTVYLQMNSLKTEDTAVYYCATDYYGHKVLYDYWGQGTQVTVSS | low polyreactivity
QVQLVESGGGLVPAGGSLRLTCAASGSTFGDYAMGWYRQAPGKERELVAAINFSDGSTYYADSVKGRFTISRDNAKNTVYLQMNSLKPEDTAVYYCAAYTYYDGVYGFDYWGQGTQVTVSS | low polyreactivity
QVQLVESGGGLVQAGGSLRLSCAASGRIFSYYAMGWYRQAPGKERELVAAITSGGRTNYADSVKGRFTISRDNAKNTVYLQMNSLNPEDTAVYYCAAIFGYGSTWCRWGKDDYWGQGTQVTVSS | high polyreactivity
QVQLVESGGGLVQAGGSLRLSCAASGRTFGRYVMGWYIQAPGKERELVARISSAGGTNYADSVKGRFTISRDNAKNTVYLQMNSLKPEDTAVYYCNFTRYWRAHLGYYWGQGTQVTVSS | high polyreactivity
QVQLVESGGGLVQAGGSLRLSCAASGSTFVTYAMGWYRQAPGKERELVAAISYSGGSTYADSVKGRFTISRDNAKNTVYLQMNSLKPEDTAVYYCNSDTSVDVRFDYWGQGTQVTVSS | low polyreactivity
QVQLVESGGGLVQAGGSLRLSCAASGSIFDLNTMGWYRQAPGKERELVAAITWGGGSTYYADSVKGRFTISRDNAKNTVYLQMNSLKPEDTAVYYCNVTWSWGEKGRKAYGYWGQGTQVTVSS | low polyreactivity
QVQLVESGGGLVQAGGSLRLSCAASGSIFRGNAMGWYRQAPGKERELVAGINRAGSTKYADSVKGRFTISRDNAKNTVYLLMNSLKPEETAVYYCAARGYSSEYDYWGKGTQVTVSS | high polyreactivity
QVQLVESGGGLVQAGGSLRLSCAASGGTFRPYAMGWYRQAPGKERELVATIRSSGGRTYYADSVKGRFTISRDNAKNTVYLQMNSLKPDDTAVYYCAKRAQTYYGYDYWGQGTQVTVSS | high polyreactivity
QVQLVESGGGLVQAGGSLRLICAASGIIFYGYGMGWYRQARGKERELVAAITRSGGRTYYADSVKGRFTISRDNAKNTVYLQMNSLKPEDTAVYYCAAKRRTGGNGYWGQGTQVTVSS | high polyreactivity
QVQLVESGGGLVQAGASLRLSCAASGFTFDSYAMGWYRQAPGKDRELVAVISATGAITYYADSVKGRFTISRDNAKNTVYLPMNSLKPEDTAVYYCAVQVSWSYYRYGYWGQGTQVTVSS | low polyreactivity
QVQLVETGGRLVQAGGSLRLSCAASGITLPKYAMGWYRPAPGKERELVAAISRSSGRTYYADSVKGRFTISRDNAKNTVYLQMNSLKPEDTAVYYCAASHGGYITRYNYWGQGTQVTVSS | high polyreactivity
QVQLVESGGGLVQAGGSLRLICAASGVNAMGWYRQAPGKEREFVAAITSIGGSTYYADSVKGRFTISRDNAKNSVYLQMNSLKPEDTAVYYCNTDRGPVKVSPLYESWGQGTQVTVSS | low polyreactivity
QVQLVESAGGLVHARGSLRLSCAASGRIFERNAMGSYRQAPGKERELVARITSGGGTYYADSVKGRFTISRDNAKNTVYLQMNSLKPEDTAVYYCAVQYLYRKYRRYDYWGLGTQVTVSS | high polyreactivity
QVQLVESGGGLVQAGGSLRLSCAASGRIFKSYVMGWYRQAPGKERELVAAISKRGGRTYYADSVKGRFTISRDNAKNTVYLQMNSLKPEDTAVYYCNATYPVGDFDYWGQGTQVTVSS | high polyreactivity
